This note sets out measurements from the supplement of paper PMC10065799, “High-throughput profiling of sequence recognition by tyrosine kinases and SH2 domains using bacterial peptide display” (eLife, 2023).

One data set has as its target c-Src SH2. As to the kind of experiment: SH2 binding enrichment of the phosphorylated peptide, bacterial display (enrichment ratio); higher = better substrate or ligand; peptides without Tyr show the background.
A further data set addresses SHP2-C SH2. The description is as above.
Another data set has as its target Grb2 SH2 (UniProt P62993). The description is as above.
The target of another data set is EPHB1 (UniProt P54762). Kind of data set: phosphorylation enrichment, bacterial display (enrichment ratio); higher = better substrate or ligand; peptides without Tyr show the background.
Another data set addresses FGFR1 (UniProt P11362). Described as above.
The target of the next data set is FGFR3 (UniProt P22607). The data set is described as above.
FGFR3, sequence (P22607 whole entry, looked up): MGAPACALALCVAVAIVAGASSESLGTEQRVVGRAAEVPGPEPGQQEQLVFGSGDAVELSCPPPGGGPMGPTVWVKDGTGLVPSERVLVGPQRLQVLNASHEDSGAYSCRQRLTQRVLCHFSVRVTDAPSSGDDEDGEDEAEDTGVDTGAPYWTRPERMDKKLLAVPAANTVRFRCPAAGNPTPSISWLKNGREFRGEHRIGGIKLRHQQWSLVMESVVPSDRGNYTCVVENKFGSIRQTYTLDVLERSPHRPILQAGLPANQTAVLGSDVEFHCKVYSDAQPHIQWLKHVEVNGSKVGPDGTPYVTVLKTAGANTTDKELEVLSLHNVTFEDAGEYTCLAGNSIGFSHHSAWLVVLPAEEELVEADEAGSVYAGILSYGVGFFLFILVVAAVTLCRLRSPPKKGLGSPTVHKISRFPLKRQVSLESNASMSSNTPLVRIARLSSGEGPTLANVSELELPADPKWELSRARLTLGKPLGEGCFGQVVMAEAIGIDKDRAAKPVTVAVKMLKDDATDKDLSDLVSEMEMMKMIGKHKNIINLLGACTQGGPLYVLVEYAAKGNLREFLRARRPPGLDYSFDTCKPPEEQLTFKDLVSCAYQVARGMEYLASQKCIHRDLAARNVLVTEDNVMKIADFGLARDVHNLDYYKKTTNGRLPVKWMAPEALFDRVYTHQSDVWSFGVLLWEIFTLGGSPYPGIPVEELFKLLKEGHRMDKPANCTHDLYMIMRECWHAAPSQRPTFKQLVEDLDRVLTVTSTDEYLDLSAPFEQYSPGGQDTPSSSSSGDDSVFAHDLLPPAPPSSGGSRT
The test system of another data set is c-Src. The description is as above.
In a further data set the test system is c-Abl (mouse). The data set is described as above.
The target of a further data set is EPHB2 (UniProt P29323). The description is as above.
The target in another data set is Fyn (UniProt P06241). Described as above.
Another data set concerns Fer (mouse). The description is as above.
For the next data set, the target named is Jak2 (UniProt O60674). Described as above.
Jak2, sequence (O60674 whole entry, looked up): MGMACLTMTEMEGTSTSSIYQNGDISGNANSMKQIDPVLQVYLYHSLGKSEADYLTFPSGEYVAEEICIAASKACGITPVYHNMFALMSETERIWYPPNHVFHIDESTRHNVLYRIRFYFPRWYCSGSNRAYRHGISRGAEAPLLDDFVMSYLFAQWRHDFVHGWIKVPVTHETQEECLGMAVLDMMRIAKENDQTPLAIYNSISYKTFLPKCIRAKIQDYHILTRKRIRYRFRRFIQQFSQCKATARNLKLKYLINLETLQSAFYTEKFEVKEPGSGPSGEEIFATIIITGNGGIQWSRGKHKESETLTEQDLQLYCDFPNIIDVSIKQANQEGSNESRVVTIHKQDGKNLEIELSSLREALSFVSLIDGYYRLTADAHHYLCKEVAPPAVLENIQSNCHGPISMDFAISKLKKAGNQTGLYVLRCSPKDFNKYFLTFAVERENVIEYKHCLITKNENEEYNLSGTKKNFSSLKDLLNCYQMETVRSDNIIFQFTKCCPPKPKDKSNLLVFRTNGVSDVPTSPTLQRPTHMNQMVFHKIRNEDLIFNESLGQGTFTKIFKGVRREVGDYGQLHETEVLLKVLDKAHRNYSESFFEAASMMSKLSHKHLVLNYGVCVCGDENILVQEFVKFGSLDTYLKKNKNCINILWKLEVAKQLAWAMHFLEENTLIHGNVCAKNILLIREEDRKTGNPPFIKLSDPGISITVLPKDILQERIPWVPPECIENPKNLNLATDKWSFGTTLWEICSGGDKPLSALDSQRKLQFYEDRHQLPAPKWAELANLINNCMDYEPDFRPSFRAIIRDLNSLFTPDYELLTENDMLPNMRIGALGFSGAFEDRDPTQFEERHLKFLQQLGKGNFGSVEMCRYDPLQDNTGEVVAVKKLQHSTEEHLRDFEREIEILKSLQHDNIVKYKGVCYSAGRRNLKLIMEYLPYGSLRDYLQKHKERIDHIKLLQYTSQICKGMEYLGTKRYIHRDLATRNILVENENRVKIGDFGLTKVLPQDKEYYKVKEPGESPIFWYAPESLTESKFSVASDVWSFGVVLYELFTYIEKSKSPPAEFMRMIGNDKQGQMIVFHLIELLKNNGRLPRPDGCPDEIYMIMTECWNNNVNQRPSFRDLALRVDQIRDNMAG
Another data set concerns the target MERTK (UniProt Q12866). The description is as above.
In another data set the test system is AncSZ. The data set is described as above.
In another data set the target is Hck (UniProt P08631). Described as above.
The next data set has as its target Fes (UniProt P07332). Described as above.
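For SH2 binding enrichment of the phosphorylated peptide, bacterial display in this document: peptide library displayed on the E. coli surface as eCPX fusions, selected cells deep-sequenced, score is each peptide's frequency after selection divided by its frequency in the input.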
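For phosphorylation enrichment, bacterial display in this document: 11-residue human phosphosite peptides and single-mutation variants displayed on the E. coli surface, counted by deep sequencing, each peptide's frequency after selection divided by its frequency in the unselected input library; frequency after pTyr selection over input frequency; kinase dosed for 20-30% of maximal phosphorylation in three min.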

Fes, sequence (P07332 whole entry, looked up, the tested form may be a part): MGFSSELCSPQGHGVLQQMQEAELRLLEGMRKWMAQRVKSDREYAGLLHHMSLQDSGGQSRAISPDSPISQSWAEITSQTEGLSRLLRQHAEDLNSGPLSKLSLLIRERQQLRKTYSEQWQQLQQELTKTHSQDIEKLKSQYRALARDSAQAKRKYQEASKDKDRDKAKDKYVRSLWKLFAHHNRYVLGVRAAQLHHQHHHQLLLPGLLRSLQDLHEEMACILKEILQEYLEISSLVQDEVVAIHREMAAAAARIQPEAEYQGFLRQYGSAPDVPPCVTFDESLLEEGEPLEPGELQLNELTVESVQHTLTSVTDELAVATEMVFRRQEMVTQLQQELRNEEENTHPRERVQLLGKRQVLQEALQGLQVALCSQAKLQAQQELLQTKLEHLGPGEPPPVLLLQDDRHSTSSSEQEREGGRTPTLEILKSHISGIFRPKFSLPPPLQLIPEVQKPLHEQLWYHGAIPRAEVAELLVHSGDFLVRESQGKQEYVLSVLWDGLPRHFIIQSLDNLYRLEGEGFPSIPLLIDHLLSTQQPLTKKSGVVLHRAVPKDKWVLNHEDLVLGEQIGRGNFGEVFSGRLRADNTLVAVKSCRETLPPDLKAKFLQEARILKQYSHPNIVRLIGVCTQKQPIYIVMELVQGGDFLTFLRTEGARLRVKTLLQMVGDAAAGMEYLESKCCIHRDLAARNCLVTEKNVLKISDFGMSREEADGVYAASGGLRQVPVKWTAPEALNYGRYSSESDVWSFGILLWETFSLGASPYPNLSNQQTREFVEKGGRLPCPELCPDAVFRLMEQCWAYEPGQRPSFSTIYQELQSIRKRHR
MERTK, sequence (Q12866 whole entry, looked up): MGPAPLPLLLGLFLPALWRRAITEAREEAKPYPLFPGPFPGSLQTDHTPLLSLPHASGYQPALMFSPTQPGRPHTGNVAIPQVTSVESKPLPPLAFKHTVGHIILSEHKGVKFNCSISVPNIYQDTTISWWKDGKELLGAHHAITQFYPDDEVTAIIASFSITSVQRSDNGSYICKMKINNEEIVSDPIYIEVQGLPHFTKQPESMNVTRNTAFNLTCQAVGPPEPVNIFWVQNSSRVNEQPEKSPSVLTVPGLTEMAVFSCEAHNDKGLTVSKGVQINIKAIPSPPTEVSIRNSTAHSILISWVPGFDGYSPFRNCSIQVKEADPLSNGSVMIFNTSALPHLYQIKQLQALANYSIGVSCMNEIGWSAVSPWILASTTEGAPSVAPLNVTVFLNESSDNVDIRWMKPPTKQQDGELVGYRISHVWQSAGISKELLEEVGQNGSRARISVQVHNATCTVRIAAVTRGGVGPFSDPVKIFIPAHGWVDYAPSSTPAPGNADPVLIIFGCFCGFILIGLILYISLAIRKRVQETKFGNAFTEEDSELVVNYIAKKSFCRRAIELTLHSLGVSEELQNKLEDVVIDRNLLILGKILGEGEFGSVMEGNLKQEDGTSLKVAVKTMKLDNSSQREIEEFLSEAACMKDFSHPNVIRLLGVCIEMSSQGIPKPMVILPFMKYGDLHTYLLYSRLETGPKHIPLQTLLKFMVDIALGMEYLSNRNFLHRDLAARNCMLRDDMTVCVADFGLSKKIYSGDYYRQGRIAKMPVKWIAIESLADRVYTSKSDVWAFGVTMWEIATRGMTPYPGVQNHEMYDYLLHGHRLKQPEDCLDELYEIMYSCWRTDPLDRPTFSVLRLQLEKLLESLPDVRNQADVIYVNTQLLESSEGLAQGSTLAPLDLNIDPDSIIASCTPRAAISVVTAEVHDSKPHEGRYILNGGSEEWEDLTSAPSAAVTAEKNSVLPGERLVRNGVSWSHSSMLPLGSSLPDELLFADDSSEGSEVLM
FGFR1, sequence (P11362 whole entry, looked up): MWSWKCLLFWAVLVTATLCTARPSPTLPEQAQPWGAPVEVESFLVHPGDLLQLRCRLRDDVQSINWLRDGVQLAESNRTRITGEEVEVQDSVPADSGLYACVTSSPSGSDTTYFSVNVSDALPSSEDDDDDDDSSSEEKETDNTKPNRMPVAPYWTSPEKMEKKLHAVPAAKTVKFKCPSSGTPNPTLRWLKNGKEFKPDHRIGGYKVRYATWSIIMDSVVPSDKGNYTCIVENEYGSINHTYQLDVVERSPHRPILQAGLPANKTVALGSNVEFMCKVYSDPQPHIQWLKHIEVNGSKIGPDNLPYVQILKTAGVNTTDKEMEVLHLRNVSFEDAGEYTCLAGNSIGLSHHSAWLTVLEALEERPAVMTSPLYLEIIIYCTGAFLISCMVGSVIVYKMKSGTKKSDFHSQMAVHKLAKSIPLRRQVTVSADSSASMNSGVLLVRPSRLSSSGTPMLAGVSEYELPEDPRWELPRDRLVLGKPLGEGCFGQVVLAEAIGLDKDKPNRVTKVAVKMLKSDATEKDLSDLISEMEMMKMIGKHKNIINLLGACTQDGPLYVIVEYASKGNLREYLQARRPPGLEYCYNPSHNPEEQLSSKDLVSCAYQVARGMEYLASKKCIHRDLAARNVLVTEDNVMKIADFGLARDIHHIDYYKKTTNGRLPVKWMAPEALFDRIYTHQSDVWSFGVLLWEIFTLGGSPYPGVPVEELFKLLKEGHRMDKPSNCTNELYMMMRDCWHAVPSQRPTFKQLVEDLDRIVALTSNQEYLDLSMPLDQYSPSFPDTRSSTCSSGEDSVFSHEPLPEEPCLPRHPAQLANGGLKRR
Grb2 SH2, sequence (P62993 whole entry, looked up): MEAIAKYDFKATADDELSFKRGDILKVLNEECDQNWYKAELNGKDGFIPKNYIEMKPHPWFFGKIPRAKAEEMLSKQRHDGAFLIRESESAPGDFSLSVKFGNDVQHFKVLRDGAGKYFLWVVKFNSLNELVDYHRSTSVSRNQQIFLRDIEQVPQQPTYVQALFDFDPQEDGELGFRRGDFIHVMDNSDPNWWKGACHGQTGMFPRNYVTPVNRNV

As for RKGIRYLTSGL [PIGA_Y82], the figures for the SH2 binding enrichment with c-Src SH2, in the data set with SHP2-C SH2 and with Grb2 SH2 were 0.399, 0.709 and 1.05, respectively. Besides, the phosphorylation enrichment with EPHB1 was found to be 0.533; in the data set with FGFR1, 0.47; in the data set with FGFR3, 0.688; with c-Src, 0.648; in the data set with c-Abl (mouse), 0.438; with EPHB2, 0.437. Moreover, the phosphorylation enrichment with Fyn came to 0.434; with Fer (mouse), 0.368; with Jak2, 0.657; in the data set with MERTK, 0.57; with AncSZ, 0.698; with Hck it was 0.645. Moreover, the phosphorylation enrichment with Fes came to 0.668.

For the sequence RLCQDYDIIGP [ANK1_Y1073_T1075I], the figures for the SH2 binding enrichment with c-Src SH2, with SHP2-C SH2 and in the data set with Grb2 SH2 were 1.29, 0.781 and 0.703, respectively. Moreover, the phosphorylation enrichment with EPHB1 is 10; with FGFR1, 2.35; with FGFR3, 1.84; in the data set on c-Src it was 1.47; in the data set with c-Abl (mouse), 0.663; with EPHB2, 12.7. In addition, the phosphorylation enrichment in the data set with Fyn came out at 1.6; in the data set on Fer (mouse), 1.81; with Jak2, 1.17; with MERTK, 1.26; in the data set on AncSZ, 2.56; with Hck it was 2.46. Also, the phosphorylation enrichment in the data set with Fes was 1.26.

As for RLDRSYSFSFS [PEAR1_Y890_YF], the SH2 binding enrichment with c-Src SH2 is 0.544; with SHP2-C SH2 it was 0.677; with Grb2 SH2 it was 0.75. Moreover, the phosphorylation enrichment with EPHB1 came out at 0.783; with FGFR1 it was 0.738; in the data set with FGFR3, 0.607; in the data set with c-Src, 0.575; in the data set with c-Abl (mouse) it was 0.593; with EPHB2 it was 0.48. Moreover, the phosphorylation enrichment came to 0.702 with Fyn; 0.809 in the data set with Fer (mouse); 0.816 with Jak2; 0.62 with MERTK; 1.06 in the data set with AncSZ; 0.791 in the data set with Hck. Moreover, in the data set with Fes, the phosphorylation enrichment is 0.984.

As for RLEGVYRNNID [PTEN_Y46], the SH2 binding enrichment with c-Src SH2 is 0.398; in the data set with SHP2-C SH2, 0.588; with Grb2 SH2, 0.948. Further, the phosphorylation enrichment with EPHB1 was 0.478; in the data set with FGFR1, 0.293; with FGFR3 it was 0.703; with c-Src, 0.561; in the data set on c-Abl (mouse), 1.35; with EPHB2, 0.578. Moreover, the phosphorylation enrichment with Fyn was determined as 0.675; in the data set with Fer (mouse), 0.849; with Jak2, 0.751; with MERTK, 0.291; with AncSZ it was 0.553; in the data set with Hck, 0.389. Further, the phosphorylation enrichment in the data set with Fes was 0.889.

Take RLLVVFPWTQR [HBB_Y36_Y36F]: the SH2 binding enrichment with c-Src SH2 worked out at 1.23; in the data set with SHP2-C SH2, 1.95; with Grb2 SH2, 1.94. Further, the phosphorylation enrichment in the data set with EPHB1 was determined as 0.574; in the data set with FGFR1 it was 0.67; with FGFR3, 1.08; in the data set with c-Src, 0.584; in the data set with c-Abl (mouse) it was 1.11; in the data set with EPHB2, 0.766. Also, the phosphorylation enrichment in the data set with Fyn was determined as 0.545; with Fer (mouse) it was 0.608; in the data set with Jak2 it was 1.59; in the data set with MERTK it was 0.784; in the data set on AncSZ it was 2.13; with Hck it was 0.829. Further, the phosphorylation enrichment with Fes is 1.73.

For RLLVVYPWTQR [HBB_Y36], the SH2 binding enrichment with c-Src SH2 was determined as 1.41; with SHP2-C SH2, 2.05; with Grb2 SH2, 1.99. Also, the phosphorylation enrichment with EPHB1 was 0.553; in the data set with FGFR1, 0.591; with FGFR3, 0.722; in the data set with c-Src, 0.53; in the data set with c-Abl (mouse), 0.77; with EPHB2, 0.632. The phosphorylation enrichment with Fyn came out at 0.574; with Fer (mouse), 0.5; in the data set with Jak2, 0.967; with MERTK, 0.523; in the data set with AncSZ it was 1.09; with Hck, 0.497. In addition, the phosphorylation enrichment in the data set with Fes is 1.06.

RLNWIYFKDQT [RS1_Y165_YF]: the SH2 binding enrichment was 0.842 with c-Src SH2, 1.01 with SHP2-C SH2 and 1.01 with Grb2 SH2. Moreover, the phosphorylation enrichment with EPHB1 came to 1.08; in the data set with FGFR1 it was 1.17; with FGFR3, 1.35; in the data set on c-Src, 0.855; in the data set on c-Abl (mouse), 1.35; with EPHB2, 0.918. The phosphorylation enrichment with Fyn was 0.757; with Fer (mouse), 0.774; in the data set with Jak2 it was 2.15; with MERTK it was 0.49; in the data set on AncSZ, 2.98; with Hck, 1.02. Besides, the phosphorylation enrichment with Fes is 2.3.

Regarding RPASQYPHQVP [ADAM12_Y895_P893S], the SH2 binding enrichment with c-Src SH2 is 0.53; with SHP2-C SH2, 0.791; with Grb2 SH2, 0.883. In addition, the phosphorylation enrichment is 0.205 with EPHB1; 0.476 with FGFR1; 0.403 in the data set with FGFR3; 0.459 with c-Src; 0.374 in the data set on c-Abl (mouse); 0.689 in the data set with EPHB2. In addition, the phosphorylation enrichment worked out at 0.61 with Fyn; 0.464 in the data set with Fer (mouse); 0.56 with Jak2; 0.419 with MERTK; 0.533 with AncSZ; 0.553 with Hck. Also, in the data set with Fes, the phosphorylation enrichment turned out to be 0.548.
